This note sets out measurements from patent publication US20240190923A1.

Where “and” joins values, the source holds several entries; their conditions need not be identical. Equal values may be shown once.

Holding throughout (assay): cell-based or functional assay
One assay deals with MDC-4 (Crotalus atrox) (UniProt Q90282).
Assay [1] concerns the target whole C. atrox venom (SVMP proteolytic activity).
Assay [2] shares this target. The source holds these as a separate data set.

Chain of UniProt Q90282 (Q90282 190-609 limits assumed): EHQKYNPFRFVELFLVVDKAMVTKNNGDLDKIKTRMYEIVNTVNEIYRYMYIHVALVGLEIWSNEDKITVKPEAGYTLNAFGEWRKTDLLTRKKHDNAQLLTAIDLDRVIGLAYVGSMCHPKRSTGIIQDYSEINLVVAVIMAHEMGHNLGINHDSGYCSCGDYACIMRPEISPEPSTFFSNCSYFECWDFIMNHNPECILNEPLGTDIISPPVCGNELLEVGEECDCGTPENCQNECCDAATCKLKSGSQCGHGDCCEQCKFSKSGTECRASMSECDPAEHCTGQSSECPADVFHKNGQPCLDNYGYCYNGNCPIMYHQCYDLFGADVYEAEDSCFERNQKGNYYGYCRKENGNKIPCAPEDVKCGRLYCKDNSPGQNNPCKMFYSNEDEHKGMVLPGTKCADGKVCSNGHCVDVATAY

In the assay with MDC-4 (Crotalus atrox), “CroFab antivenom (crotalidae polyvalent immune fab ovine)” had an amount for ˜50% neutralization of 2 µg MDC-4 proteolysis of Azocoll of 12.1 µg and a weight of CroFab relative to FETUA-3 for ˜50% neutralization of MDC-4 of 16 fold. Besides, in assay [1], the weight of CroFab relative to FETUA-3 for approximately 50% neutralization of whole venom SVMP activity was found to be 18 fold.

B1: C. atrox FETUA-3 (recombinant, tag-free) (protein)
chain: FQLAGNMDCNTKGTKDWADIGVRYINEHKLHGYKQALNIIKIFRLLPSDGRSVIFHFKLNLLETECHVLDPTPLENCTVRQQNNHAVEMDCNVRIIHDIATFEDEVFVKCNSTPDSVENVRRNCPKCPILLPPNDPHVIDSVEYVLNKHNEKLSGHIYEVLEISRGQHKYEPEAFYVEFAIVEVNCTAEEAHDDHHDCHPNTDGENHIGFCRATVFRSHASLEKPKEEMFESDCVILHVKKGHAYSHLIEHHVGKYNTSPGRNSTDECVVQCPVAFVNKEVPKDISDHDTPPVEGCPGKALHFQL
As to B1, the inhibition of whole venom proteolysis of Azocoll collagen substrate (10 µg venom) in assay [2] was 2.5 µg and 5 µg.

B2: C. atrox FETUA-5 (recombinant, tag-free) (protein)
chain: YMVREEDLNCNSKAAKYRADQAVRYINEHNLHGYKQALNIIKTIRLLPSDGLLVVIYLKLNLLETECHVLDPTPVENCTVRQQNNHAVETDCDVKVIYNIETFKDEFLVKCHSTPGSVEKILQDCPKCPILLSLSDPHVVDSVEYVLNKHNEQLSGHVYEVLEISRGQHKYEPEAFYVEFAIVEVNCTAQEAHDDHHHCHPNTAGENHIAFCRATVFRSYASLEKPKDEKFESDCVILHVKEGHAHSHLIEHHTGKHSTSPGHNSTVLNLAHSHNHTSASHESHSHEHVMEVPVAVANREDPTDIPHHHTPSVDGCPGKVLHFKL
The molecule B2 showed an inhibition of whole venom proteolysis of Azocoll collagen substrate (10 µg venom) in assay [2] of 20 µg.
